Molecular target: Recombinant human protein C inhibitor (PCI, SERPINA5) (UniProt P05154)
Sequence (P05154 20-406): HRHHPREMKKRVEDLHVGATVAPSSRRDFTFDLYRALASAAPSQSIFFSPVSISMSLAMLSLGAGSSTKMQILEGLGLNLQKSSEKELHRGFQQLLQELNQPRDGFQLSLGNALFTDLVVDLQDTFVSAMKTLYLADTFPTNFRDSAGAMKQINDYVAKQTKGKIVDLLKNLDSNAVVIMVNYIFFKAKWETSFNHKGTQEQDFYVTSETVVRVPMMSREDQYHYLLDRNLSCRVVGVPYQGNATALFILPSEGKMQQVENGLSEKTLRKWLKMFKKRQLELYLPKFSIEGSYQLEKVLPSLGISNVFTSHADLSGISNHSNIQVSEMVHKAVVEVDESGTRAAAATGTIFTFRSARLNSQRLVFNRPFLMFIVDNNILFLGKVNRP

**Q.** Which “cleavage of PCI (anti-PCI immunoblot)” value does the source give for “Recombinant human hepsin (R&D Systems 4776-SE-10)” here?
**A.** resulted in the appearance of cleaved forms of PCI

**Q.** How did the “cleavage of PCI (anti-PCI immunoblot)” value turn out when “Recombinant mouse testisin (R&D Systems 6820-SE-10)” was run?
**A.** PCI is a substrate for testisin ... testisin cleaves PCI at a second site

Reference: US20200155643
